From patent US7709240B2, “AMP deaminase originating streptomyces and utilization thereof” (Amano Enzyme Inc., priority 2004, dated 2010)
Where “and” joins values, the source holds several entries; their conditions need not be identical. Equal values may be shown once.

Legend:
[1] = Enzyme kinetics (Km, Vmax); type: biochemical
[2] = Relation between pH and activity of purified enzyme; type: biochemical
Description: (§1) By using the decrease of OD265 at the time of reaction as an index, the enzyme activity was measured. To 1.5 ml of solution obtained by mixing 0.017M 5′ AMP-2Na and 1/15M phosphate buffer solution (pH 5.6) at the ratio of 1:2, 0.5 ml of sample solution was added so as to obtain a reaction solution, which was reacted at 37° C. for 15 minutes. Then, 2% perchloric acid solution was added so as to stop the reaction and 100 μl of the solution was taken out. Water was added to the solution so that the total amount was 5 ml. Then, OD265 was measured. The value similarly measured at reaction time of 0 minute was defined as a blank. Under the above-mentioned conditions, a case where an absorbance difference is reduced by 0.001 during 60 minutes was defined as one unit.
Next, the relation between pH and activity of the obtained purified enzyme was examined. […] In the wide range of pH from about 4.5 to about 8.5, relatively high activity is observed. In the range of pH from about 5.0 to about 8.0, 70% or more of the reaction property is observed. Furthermore, it is shown that even in the case where pH is 9.0, about 40% of reactivity is obtained.

[3] = Thermostability of crude enzyme solutions / culture supernatant: residual AMP deaminase activity after 30 minutes; type: physicochemical; settings: enzyme solution or culture supernatant treated 30 minutes at 30-75° C., pH 5.6
Description: as §1, with “unit. […]” for “unit.”
Then, in the genus Streptomyces in the stored strains of Amano Enzyme Inc., screening of AMP deaminase producing strain was carried out. […] Furthermore, the residual activity was measured when the activity obtained when treatment was not carried out was defined as 100%. […]
The thermostability of AMP deaminase produced by transformant (SAD-1) was measured. Culture supernatant of SAD-1 prepared by the above-mentioned method was treated at a predetermined temperature, and the residual AMP deaminase activity was measured (pH 5.6). […]

[4] = Chromatofocusing (isoelectric point); type: physicochemical; settings: 8.12 = main fraction; at least two isozymes
Description: In order to obtain an isoelectric point of AMP deaminase derived from Streptomyces murinus obtained by the above-mentioned method, chromatofocusing was carried out. By using MonoP column (Pharmacia), a starting buffer (Start Buffer) and an elution buffer (Poly buffer 96) were adjusted to pH 4.0 with 0.075M Tris acetate buffer (pH9.3) and with hydrochloric acid, respectively. The final amount was made to 100 ml. Furthermore, Pre-gradient with 3 ml, gradient elution with 30 ml and elution with 30 ml were carried out. From the results, it was thought that at least two isozymes were present (pI 8.12, 7.02), but the isoelectric point of main fraction was 8.12. Various properties, including the isoelectric point obtained from the above-mentioned results, of AMP deaminase derived from Streptomyces murinus, are shown in FIG. 11.

[5] = Thermostability of purified enzyme: residual activity after 30 minutes at each temperature; type: physicochemical
Description: as §1
Subsequently, the thermostability of the enzyme was examined by the following procedure. An enzyme solution (0.15 ml) containing 2.8 μg protein (total amount) was adjusted to pH 5.6 by using acetate buffer (pH 5.0), and then treated for 30 minutes at each temperature (40° C., 50° C., 60° C., 65° C., 70° C., and 75° C.). Then, the residual activity (percent with respect to the enzyme activity in the case where the treatment was not carried out) was measured. At 65° C. or less, about 90% or more of activity is maintained. Furthermore, also when the treatment is carried out at 70° C., about 55% of the activity is maintained.

[6] = pH stability of purified enzyme; type: physicochemical; settings: pH from about 6.5 to about 8.0, 30° C. for 30 minutes; treatment at pH 7.0 = reference
Description: Next, pH stability of the enzyme was examined by the following procedure. An enzyme solution (0.15 ml) containing 2.8 μg protein (total amount) was adjusted to pH 3 to 8 by using McIlvaine buffer solution, and to pH 8 to 10 by using Atkins-pantin buffer solution. The solution was then allowed to stand at 30° C. for 30 minutes. Thereafter, the residual activity (percent with respect to the enzyme activity in the case where the treatment was carried out in pH 7.0) was measured. It is shown that in the range of pH from about 6.0 to about 8.5, relatively high activity is maintained, and in the range of pH from about 6.5 to about 8.0, about 80% or more of activity is maintained.

[7] = Feasibility test 2: nuclease and deaminase treatment of yeast lysate carried out simultaneously; settings: simultaneously with nuclease, 70° C., pH5, 3 hours or 5 hours
Description: In test 2, treatment with nuclease and treatment with deaminase were carried out simultaneously. Specifically, the treatment was carried out by the following procedure and the IMP conversion rate was calculated. Firstly, nuclease “AMANO” G (Amano Enzyme Inc., 0.1% w/w yeast solid) and “Deamizyme (50,000 units) (trade name of Amano Enzyme Inc., 0.01 to 0.04% w/w yeast solid)” that is an AMP deaminase agent derived from the test enzyme (Aspergillus melleus) or a crude enzyme solution prepared by using Streptomyces murinus were added to yeast lysate (YL-15, 0.2%) and they were reacted with yeast lysate under the conditions at a temperature of 70° C. and pH5 for a predetermined time (3 hours or 5 hours). Then, the reacted product was heat treated, and then subjected to HPLC analysis. Note here that added amount of AMP deaminase derived from Streptomyces murinus was set so that the activity value thereof became the same as that of “Deamizyme (50,000 u/mg product)” (trade name, Amano Enzyme Inc.)

B1: AMP deaminase derived from Streptomyces murinus: thermostable AMP deaminase enzyme produced by Streptomyces murinus IFO14802; amino acid sequence SEQ ID NO: 1 (protein, listed as Streptomyces murinus)
chain: APPPRQATAAEARTDAYLRSVKDRPAALRAFFRQLPKGGDLHNHLSGAVNTDYLIELAAEDGLCIDATMTAVPSPCGPGTRPAADARTDRAFHDAIVRAWSMQDFPPDENGHDHFFDTFGKFGEVTWRHRGKLLAQVADTVVANNQSYLETMVTPASDGAKQLADQVGWDADLTALHRKLAAGGKLDKLVADARKEADDGDAEFRATEHCGTAKARPACGLTVRWISQASRGSSPVRVFTQLDLGMRLAEADSRFVAVNLVQPEDWDSSLENYSLQMRMVGYLRTVYPKAHVTLHAGELWPGLVKPEALKFHIAEAVDIAHTQRVGHGVDLVHEDNWQRTARTMAARQIAVEVPFSSNAQILGVKGAEHPFTTYRRYGVPVVLATDDPGVSRIDISHEYQYAAATYGLGYPELKDLARASLQYAFLPGASLWQGNPTAQGYHPVAACRAERPGQPVHSAACRRLLDGSARARLEWRQEAAFAAFERAHARG
- Km [1]: 950 µM
- Vmax [1]: 3.5e+07 µmol/min/mg
- optimum pH ([2]; McIlvaine buffer solution): around 5.6
- relative activity (reactivity) ([2]; pH 9.0, activity at pH 5.6 = 100%): about 40%
- relative activity (reaction property) ([2]; pH from about 5.0 to about 8.0, activity at pH 5.6 = 100%): ≥ 70%
- thermostability (residual AMP deaminase activity) [3]: extremely excellent
- isoelectric point (pI) [4]: 8.12 and 7.02
- temperature stability (stable at) ([5]; acetate buffer solution (pH 5.6)): ≤ 65 °C
- residual activity ([5]; treated at 70° C. for 30 minutes, pH 5.6 acetate buffer, untreated = 100%): about 55%
- residual activity [6]: ≥ 80%
- IMP production [7]: IMP was produced
